# Data published in patent US20230255948A1 (Stanford University, published 2023).
# What was measured:
# [1] = molecular target: α4β1 integrin on mouse B16 melanoma cells and mouse RAW macrophage cells (mouse, UniProt Q00651 41-1039; P09055 21-798); experiment: cell-based or functional assay
# [2] = molecular target: α9β1 integrin on mouse RAW macrophage cells (mouse, UniProt B8JK39 29-1036; P09055 21-798); experiment: cell-based or functional assay
# Chain of α9β1 integrin on mouse RAW macrophage cells (B8JK39 29-1036, chain 1 of 2): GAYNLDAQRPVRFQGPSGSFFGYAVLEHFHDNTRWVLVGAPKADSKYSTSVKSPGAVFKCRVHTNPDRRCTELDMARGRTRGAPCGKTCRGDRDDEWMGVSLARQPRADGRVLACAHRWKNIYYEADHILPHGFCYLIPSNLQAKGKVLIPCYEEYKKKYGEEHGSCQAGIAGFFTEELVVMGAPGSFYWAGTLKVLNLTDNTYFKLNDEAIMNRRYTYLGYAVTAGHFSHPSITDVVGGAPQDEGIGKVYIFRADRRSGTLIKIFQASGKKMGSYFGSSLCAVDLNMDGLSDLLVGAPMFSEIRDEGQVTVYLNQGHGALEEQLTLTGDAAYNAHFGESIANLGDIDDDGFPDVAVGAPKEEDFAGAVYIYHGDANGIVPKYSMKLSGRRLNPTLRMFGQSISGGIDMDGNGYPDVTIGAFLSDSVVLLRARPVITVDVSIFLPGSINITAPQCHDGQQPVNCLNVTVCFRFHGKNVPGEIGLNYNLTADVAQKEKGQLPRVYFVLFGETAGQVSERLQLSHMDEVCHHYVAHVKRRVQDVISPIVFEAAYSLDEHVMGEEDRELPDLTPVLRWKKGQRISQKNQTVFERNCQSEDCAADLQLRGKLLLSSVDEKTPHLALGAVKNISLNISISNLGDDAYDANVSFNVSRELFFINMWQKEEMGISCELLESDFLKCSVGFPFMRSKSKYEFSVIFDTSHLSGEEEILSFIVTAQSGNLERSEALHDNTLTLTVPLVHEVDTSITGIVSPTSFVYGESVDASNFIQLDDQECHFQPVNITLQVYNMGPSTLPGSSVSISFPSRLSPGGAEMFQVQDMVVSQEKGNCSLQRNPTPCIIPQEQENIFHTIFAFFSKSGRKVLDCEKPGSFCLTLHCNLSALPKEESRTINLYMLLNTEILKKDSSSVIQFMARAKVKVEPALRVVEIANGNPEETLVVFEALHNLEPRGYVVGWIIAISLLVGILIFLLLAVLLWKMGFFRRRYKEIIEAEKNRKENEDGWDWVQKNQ
# Chain of α9β1 integrin on mouse RAW macrophage cells (P09055 21-798, chain 2 of 2): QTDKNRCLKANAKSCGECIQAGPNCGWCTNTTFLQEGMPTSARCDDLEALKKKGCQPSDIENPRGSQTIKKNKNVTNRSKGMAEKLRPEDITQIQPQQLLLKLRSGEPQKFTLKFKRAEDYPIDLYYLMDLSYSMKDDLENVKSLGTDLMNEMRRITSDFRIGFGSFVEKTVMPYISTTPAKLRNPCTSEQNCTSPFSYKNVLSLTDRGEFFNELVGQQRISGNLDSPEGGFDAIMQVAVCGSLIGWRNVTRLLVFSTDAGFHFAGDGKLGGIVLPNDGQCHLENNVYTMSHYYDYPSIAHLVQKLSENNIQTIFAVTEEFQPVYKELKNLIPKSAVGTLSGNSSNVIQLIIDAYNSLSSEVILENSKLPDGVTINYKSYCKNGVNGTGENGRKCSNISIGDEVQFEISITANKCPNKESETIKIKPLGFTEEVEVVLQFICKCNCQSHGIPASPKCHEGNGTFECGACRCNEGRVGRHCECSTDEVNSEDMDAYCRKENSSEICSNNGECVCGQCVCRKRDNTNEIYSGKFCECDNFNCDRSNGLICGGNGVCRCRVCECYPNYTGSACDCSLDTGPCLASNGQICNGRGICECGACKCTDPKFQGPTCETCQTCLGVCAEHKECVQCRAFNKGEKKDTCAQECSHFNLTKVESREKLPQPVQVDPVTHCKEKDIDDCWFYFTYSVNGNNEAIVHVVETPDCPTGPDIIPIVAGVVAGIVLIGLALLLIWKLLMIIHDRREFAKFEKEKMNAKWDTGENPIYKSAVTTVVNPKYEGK
# Chain of α4β1 integrin on mouse B16 melanoma cells and mouse RAW macrophage cells (Q00651 41-1039, chain 1 of 2): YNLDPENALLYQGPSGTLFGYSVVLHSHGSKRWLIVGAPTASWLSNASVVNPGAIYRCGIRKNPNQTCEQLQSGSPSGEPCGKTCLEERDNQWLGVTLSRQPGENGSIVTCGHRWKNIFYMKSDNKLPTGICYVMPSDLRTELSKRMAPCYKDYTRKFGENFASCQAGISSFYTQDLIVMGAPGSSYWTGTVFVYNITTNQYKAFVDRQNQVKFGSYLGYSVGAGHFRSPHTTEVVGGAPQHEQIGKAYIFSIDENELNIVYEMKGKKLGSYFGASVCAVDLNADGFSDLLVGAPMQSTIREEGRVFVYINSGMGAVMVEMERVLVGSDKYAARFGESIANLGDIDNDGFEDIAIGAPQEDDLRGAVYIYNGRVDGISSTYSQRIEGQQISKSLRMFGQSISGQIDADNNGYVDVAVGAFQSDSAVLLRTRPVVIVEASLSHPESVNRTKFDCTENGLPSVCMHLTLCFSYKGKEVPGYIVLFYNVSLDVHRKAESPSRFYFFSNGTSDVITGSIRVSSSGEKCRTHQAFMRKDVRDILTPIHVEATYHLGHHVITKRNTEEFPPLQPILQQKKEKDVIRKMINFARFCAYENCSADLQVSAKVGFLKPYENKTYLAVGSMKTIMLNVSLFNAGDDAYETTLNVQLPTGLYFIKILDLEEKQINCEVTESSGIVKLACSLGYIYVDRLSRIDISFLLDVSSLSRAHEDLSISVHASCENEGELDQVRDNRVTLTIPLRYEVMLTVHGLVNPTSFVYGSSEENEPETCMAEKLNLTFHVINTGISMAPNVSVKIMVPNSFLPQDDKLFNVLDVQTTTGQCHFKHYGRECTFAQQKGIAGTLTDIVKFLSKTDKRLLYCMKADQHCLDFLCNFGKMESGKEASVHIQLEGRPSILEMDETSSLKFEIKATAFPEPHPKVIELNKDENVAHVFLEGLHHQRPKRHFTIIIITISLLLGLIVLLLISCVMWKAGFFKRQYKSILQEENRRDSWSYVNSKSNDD
# Chain of α4β1 integrin on mouse B16 melanoma cells and mouse RAW macrophage cells (P09055 21-798, chain 2 of 2): as the sequence (P09055 21-798, chain 2 of 2) above
binder,measurement,setting,value
RGDSVVYGLR (ligand) [Thrombin-cleaved OPN-Arg (OPN-R)],B16 cell adhesion,[1],~3.5 fold
same,PGE2 secretion in RAW cells,[1],~4.2 fold
same,PGE2 secretion in RAW cells,[2],~4.2 fold
